T1: CD32a-H131 (FcgRIIa-H131) (Homo sapiens, UniProt P12318)
T1 sequence (P12318 34-217 limits assumed): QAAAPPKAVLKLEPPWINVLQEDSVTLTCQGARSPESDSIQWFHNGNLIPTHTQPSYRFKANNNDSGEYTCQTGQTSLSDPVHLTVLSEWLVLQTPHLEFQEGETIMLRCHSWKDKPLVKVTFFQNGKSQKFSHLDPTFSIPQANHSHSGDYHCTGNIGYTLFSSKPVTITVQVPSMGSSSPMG

T2: CD32b (FcgRIIb) (Homo sapiens, UniProt P31994)
T2 sequence (P31994 43-310): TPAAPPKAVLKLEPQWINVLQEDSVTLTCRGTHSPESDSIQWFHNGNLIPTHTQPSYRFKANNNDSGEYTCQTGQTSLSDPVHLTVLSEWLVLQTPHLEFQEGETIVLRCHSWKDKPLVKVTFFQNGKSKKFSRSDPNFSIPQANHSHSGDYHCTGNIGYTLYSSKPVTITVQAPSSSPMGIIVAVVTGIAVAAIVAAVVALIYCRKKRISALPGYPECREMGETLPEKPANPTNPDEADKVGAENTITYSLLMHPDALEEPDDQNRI

T3: CD32a-R131 (FcgRIIa-R131) (Homo sapiens, UniProt P12318, H167R)
T3 sequence (P12318 34-217 H167R limits assumed): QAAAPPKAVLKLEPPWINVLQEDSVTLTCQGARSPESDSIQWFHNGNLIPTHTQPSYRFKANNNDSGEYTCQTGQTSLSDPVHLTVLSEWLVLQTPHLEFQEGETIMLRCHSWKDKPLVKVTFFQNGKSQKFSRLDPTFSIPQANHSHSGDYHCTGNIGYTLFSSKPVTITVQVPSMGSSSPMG


Tests used:
[1] = target: CD16B-NA2 (FcgRIIIb-NA2) (Homo sapiens, UniProt O75015); experiment: SPR binding to FcgR-his: CD16B-NA2; conditions: 1 μM antibody, anti-his Fab captured FcgR-his
Sequence of CD16B-NA2 (FcgRIIIb-NA2) (O75015 17-200 limits assumed): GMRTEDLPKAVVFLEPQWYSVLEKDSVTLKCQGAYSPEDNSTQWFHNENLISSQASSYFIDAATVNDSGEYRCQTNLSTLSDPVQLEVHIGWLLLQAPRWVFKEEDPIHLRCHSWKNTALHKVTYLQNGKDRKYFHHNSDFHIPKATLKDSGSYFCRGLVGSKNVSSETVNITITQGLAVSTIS
Procedure: (§1) The binding of antibodies to Fc gamma receptors (FcγRs or FcgRs) was studied using biosensor technologies including Biacore surface plasmon resonance (SPR) and Fortebio Biolayer Interferometry (BLI). SPR studies were performed on a Biacore T100 instrument (GE Healthcare) at 25° C. The Fab fragment from a murine anti-6×His antibody was immobilized on a CM5 sensor chip using EDC/NHS to a density of ˜3000 RU. Various his-tagged FcgRs (7 ug/ml) were captured via the C-terminal his-tag using a contact time of 30 s at 10 ul/min, and the binding of 1.0 μM antibody was evaluated in a running buffer of 10 mM NaPO4, 130 mM NaCl, 0.05% p20 (PBS-T) pH 7.1. FcgRs used for these experiments included CD64 (FcgRI), CD32a-H131 (FcgRIIa-H131), CD32a-R131 (FcgRIIa-R131), CD32b (FcgRIIb), CD16a-V158 (FcgRIIIa-V158), CD16b-NA1 (FcgRIIIb-NA1), and CD16B-NA2 (FcgRIIIb-NA2). BLI experiments were performed on a Fortebio Octet RED instrument (Pall, Fortebio) at 25° C. in 10 mM NaPO4, 130 mM NaCl, 0.05% p20 (PBS-T) pH 7.1. Antibodies were captured out of undiluted expression supernatants on protein A coated sensors, followed by the binding of 1 μM hCD32a-H131, hCD32a-R131, hCD32b, hCD16a-V158, or 0.1 μM hCD64 analytes.

[2] = target: CD16a-V158 (FcgRIIIa-V158) (Homo sapiens, UniProt P08637, F176V); experiment: SPR binding to FcgR-his: CD16a-V158; conditions: 1 μM antibody, anti-his Fab captured FcgR-his
Sequence of CD16a-V158 (FcgRIIIa-V158) (P08637 17-208 F176V limits assumed): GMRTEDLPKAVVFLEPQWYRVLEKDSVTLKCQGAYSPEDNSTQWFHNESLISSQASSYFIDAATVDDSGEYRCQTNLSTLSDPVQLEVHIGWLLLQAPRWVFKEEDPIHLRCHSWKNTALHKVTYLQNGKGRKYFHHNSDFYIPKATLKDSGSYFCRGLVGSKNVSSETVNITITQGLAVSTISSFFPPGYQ
Procedure: as §1

[3] = target: T1, CD32a-H131 (FcgRIIa-H131); experiment: SPR binding to FcgR-his: CD32a-H131; conditions: 1 μM antibody, anti-his Fab captured FcgR-his
Procedure: as §1

[4] = target: CD64 (FcgRI) (Homo sapiens, UniProt P12314); experiment: SPR binding of 1.0 μM antibody to anti-his Fab captured FcgR-his: CD64
Sequence of CD64 (FcgRI) (P12314 16-374): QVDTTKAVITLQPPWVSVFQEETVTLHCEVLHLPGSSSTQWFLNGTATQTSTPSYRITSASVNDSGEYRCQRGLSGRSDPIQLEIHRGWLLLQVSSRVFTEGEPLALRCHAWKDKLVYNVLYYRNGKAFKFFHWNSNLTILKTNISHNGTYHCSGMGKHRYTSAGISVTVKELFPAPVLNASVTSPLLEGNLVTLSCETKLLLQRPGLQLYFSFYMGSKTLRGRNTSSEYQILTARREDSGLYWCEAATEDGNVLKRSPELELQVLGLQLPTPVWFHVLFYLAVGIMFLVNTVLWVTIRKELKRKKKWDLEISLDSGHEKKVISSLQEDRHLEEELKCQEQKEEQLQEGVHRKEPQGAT
Procedure: as §1

[5] = target: T2, CD32b (FcgRIIb); experiment: SPR binding to FcgR-his: CD32b; conditions: 1 μM antibody, anti-his Fab captured FcgR-his
Procedure: as §1

[6] = target: T3, CD32a-R131 (FcgRIIa-R131); experiment: SPR binding to FcgR-his: CD32a-R131; conditions: 1 μM antibody, anti-his Fab captured FcgR-his
Procedure: as §1

[7] = tested on: human FcγRs; experiment: SPR binding profile to human FcγRs (panel)
Procedure: Binding of the constructs to human FcγRs was measured via SPR. hCD64 and hCD32a-H131 binding data for IgG1.1 and IgG2 molecules were consistent with expected values for the different Fcs. IgG1.1f is the most inert Fc.
as §1
This engineering strategy was further explored by producing other antibodies formatted with IgG2.3G1-AY, IgG2.3G1-AY-S267E (IgG2.3G1-AY-V27), as well as IgG2-B-form variants (IgG2.5G1-AY and IgG2.5G1-AY-V27), and other hybrid antibodies containing different combinations of IgG1 and IgG2 constant domains, and testing the binding of these antibodies to anti-his Fab captured his-tagged FcgRs using Biacore SPR technology.

Row | % Rmax, binding to hCD16B-NA2 [1] | % Rmax, binding to hCD16a-V158 [2] | % Rmax, binding to hCD32a-H131 [3] | % Rmax, binding to hCD64 [4] | % Rmax, binding to hCD32b [5] | % Rmax, binding to hCD32a-R131 [6] | Molecule | FcgR binding properties by SPR (in words) [7]
1 | 0% | 2% | 75% | 3% | 4% | 17% | mAb6-IgG2.5 (protein, left off: another chain or arm of the molecule) constant: ASTKGPSVFPLAPSSRSTSESTAALGCLVKDYFPEPVTVSWNSGALTSGVHTFPAVLQSSGLYSLSSVVTVPSSNFGTQTYTCNVDHKPSNTKVDKTVERKCCVECPPCPAPPVAGPSVFLFPPKPKDTLMISRTPEVTCVVVDVSHEDPEVQFNWYVDGVEVHNAKTKPREEQFNSTFRVVSVLTVVHQDWLNGKEYKCKVSNKGLPAPIEKTISKTKGQPREPQVYTLPPSREEMTKNQVSLTCLVKGFYPSDIAVEWESNGQPENNYKTTPPMLDSDGSFFLYSKLTVDKSRWQQGNVFSCSVMHEALHNHYTQKSLSLSPGK | 
2 | −2% | 0% | 39% | −2% | −2% | 4% | mAb13-IgG2.5 (protein, left off: another chain or arm of the molecule) constant: ASTKGPSVFPLAPSSRSTSESTAALGCLVKDYFPEPVTVSWNSGALTSGVHTFPAVLQSSGLYSLSSVVTVPSSNFGTQTYTCNVDHKPSNTKVDKTVERKCCVECPPCPAPPVAGPSVFLFPPKPKDTLMISRTPEVTCVVVDVSHEDPEVQFNWYVDGVEVHNAKTKPREEQFNSTFRVVSVLTVVHQDWLNGKEYKCKVSNKGLPAPIEKTISKTKGQPREPQVYTLPPSREEMTKNQVSLTCLVKGFYPSDIAVEWESNGQPENNYKTTPPMLDSDGSFFLYSKLTVDKSRWQQGNVFSCSVMHEALHNHYTQKSLSLSPGK | 
3 | 0% | 1% | 46% | 2% | 1% | 8% | mAb4-IgG2.5 (protein, left off: another chain or arm of the molecule) constant: ASTKGPSVFPLAPSSRSTSESTAALGCLVKDYFPEPVTVSWNSGALTSGVHTFPAVLQSSGLYSLSSVVTVPSSNFGTQTYTCNVDHKPSNTKVDKTVERKCCVECPPCPAPPVAGPSVFLFPPKPKDTLMISRTPEVTCVVVDVSHEDPEVQFNWYVDGVEVHNAKTKPREEQFNSTFRVVSVLTVVHQDWLNGKEYKCKVSNKGLPAPIEKTISKTKGQPREPQVYTLPPSREEMTKNQVSLTCLVKGFYPSDIAVEWESNGQPENNYKTTPPMLDSDGSFFLYSKLTVDKSRWQQGNVFSCSVMHEALHNHYTQKSLSLSPGK | 
4 | 1% | 4% | 89% | 6% | 5% | 26% | mAb5-IgG2.5 (protein, left off: another chain or arm of the molecule) constant: ASTKGPSVFPLAPSSRSTSESTAALGCLVKDYFPEPVTVSWNSGALTSGVHTFPAVLQSSGLYSLSSVVTVPSSNFGTQTYTCNVDHKPSNTKVDKTVERKCCVECPPCPAPPVAGPSVFLFPPKPKDTLMISRTPEVTCVVVDVSHEDPEVQFNWYVDGVEVHNAKTKPREEQFNSTFRVVSVLTVVHQDWLNGKEYKCKVSNKGLPAPIEKTISKTKGQPREPQVYTLPPSREEMTKNQVSLTCLVKGFYPSDIAVEWESNGQPENNYKTTPPMLDSDGSFFLYSKLTVDKSRWQQGNVFSCSVMHEALHNHYTQKSLSLSPGK | 
5 |  |  |  |  |  |  | IgG2.3G1-AY-V27: IgG2.3G1-AY constant region with S267E (protein, Synthetic: IgG2.3G1-AY-V27, IgG2.3G1-AY constant region with S267E) ASTKGPSVFPLAPCSRSTSESTAALGCLVKDYFPEPVTVSWNSGALTSGVHTFPAVLQSSGLYSLSSVVTVPSSNFGTQTYTCNVDHKPSNTKVDKTVERKSCVECPPCPAPELLGGPSVFLFPPKPKDTLMISRTPEVTCVVVDVEHEDPEVKFNWYVDGVEVHNAKTKPREEQYNSTYRVVSVLTVLHQDWLNGKEYKCKVSNKALPAPIEKTISKAKGQPREPQVYTLPPSREEMTKNQVSLTCLVKGFYPSDIAVEWESNGQPENNYKTTPPVLDSDGSFFLYSKLTVDKSRWQQGNVFSCSVMHEALHNHYTQKSLSLSPGK | comparable FcgR binding properties to IgG1f and IgG1f-S267E, respectively
6 | 9% | 32% | 74% | 81% | 84% | 89% | mAb7-IgG2.5G1-AY-V27 (protein, left off: another chain or arm of the molecule) constant: ASTKGPSVFPLAPSSRSTSESTAALGCLVKDYFPEPVTVSWNSGALTSGVHTFPAVLQSSGLYSLSSVVTVPSSNFGTQTYTCNVDHKPSNTKVDKTVERKCCVECPPCPAPELLGGPSVFLFPPKPKDTLMISRTPEVTCVVVDVEHEDPEVKFNWYVDGVEVHNAKTKPREEQYNSTYRVVSVLTVLHQDWLNGKEYKCKVSNKALPAPIEKTISKAKGQPREPQVYTLPPSREEMTKNQVSLTCLVKGFYPSDIAVEWESNGQPENNYKTTPPVLDSDGSFFLYSKLTVDKSRWQQGNVFSCSVMHEALHNHYTQKSLSLSPGK | 
7 | 10% | 33% | 76% | 77% | 77% | 79% | mAb8-IgG2.5G1-AY-V27 (protein, left off: another chain or arm of the molecule) constant: ASTKGPSVFPLAPSSRSTSESTAALGCLVKDYFPEPVTVSWNSGALTSGVHTFPAVLQSSGLYSLSSVVTVPSSNFGTQTYTCNVDHKPSNTKVDKTVERKCCVECPPCPAPELLGGPSVFLFPPKPKDTLMISRTPEVTCVVVDVEHEDPEVKFNWYVDGVEVHNAKTKPREEQYNSTYRVVSVLTVLHQDWLNGKEYKCKVSNKALPAPIEKTISKAKGQPREPQVYTLPPSREEMTKNQVSLTCLVKGFYPSDIAVEWESNGQPENNYKTTPPVLDSDGSFFLYSKLTVDKSRWQQGNVFSCSVMHEALHNHYTQKSLSLSPGK | 
8 | 7% | 26% | 68% | 84% | 76% | 92% | mAb7-IgG2.3G1-AY-V27 (protein, left off: another chain or arm of the molecule) constant: ASTKGPSVFPLAPCSRSTSESTAALGCLVKDYFPEPVTVSWNSGALTSGVHTFPAVLQSSGLYSLSSVVTVPSSNFGTQTYTCNVDHKPSNTKVDKTVERKSCVECPPCPAPELLGGPSVFLFPPKPKDTLMISRTPEVTCVVVDVEHEDPEVKFNWYVDGVEVHNAKTKPREEQYNSTYRVVSVLTVLHQDWLNGKEYKCKVSNKALPAPIEKTISKAKGQPREPQVYTLPPSREEMTKNQVSLTCLVKGFYPSDIAVEWESNGQPENNYKTTPPVLDSDGSFFLYSKLTVDKSRWQQGNVFSCSVMHEALHNHYTQKSLSLSPGK | 
